# According to patent publication US5773001 (American Cyanamid Company, dated 1998):
# Where two headings read alike, the source gives them in different places.
# Legend:
# CD33 antigen (human) [1] = target: CD33 antigen (human) (UniProt P20138)
# CD33 antigen (human) [2] = target: CD33 antigen (human) (UniProt P20138); test: competition with 125I-labelled native antibody on HEL 92.1.7 cells; IC50 (reference) / IC50 (sample)
# [3] = target: IL-2 receptor that is found on activated and functionally mature T cells, including abnormally activated leukemia cells (Homo sapiens (Human)) (UniProt P01589)
# CD33 antigen (human) [4] = target: CD33 antigen (human) (UniProt P20138); remark: listed apart in the source
# CD33 antigen (human) [5] = target: CD33 antigen (human) (UniProt P20138); remark: listed apart in the source
# CD33 antigen (human) [6] = target: CD33 antigen (human) (UniProt P20138); remark: listed apart in the source
# [7] = target: polyepithelial mucin (PEM) antigen on cells (human) (UniProt P15941)
# CD33 antigen (human) [8] = target: CD33 antigen (human) (UniProt P20138); remark: listed apart in the source
# CD33 antigen (human) [9] = target: CD33 antigen (human) (UniProt P20138); remark: listed apart in the source
# CD33 antigen (human) [10] = target: CD33 antigen (human) (UniProt P20138); remark: listed apart in the source
# CD33 antigen (human) [11] = target: CD33 antigen (human) (UniProt P20138); remark: listed apart in the source
# CD33 antigen (human) [12] = target: CD33 antigen (human) (UniProt P20138); test: competition with 125I-labelled native antibody on HEL 92.1.7 cells; IC50 (reference) / IC50 (sample); remark: listed apart in the source
molecule,measurement,setting,value
Conjugate of 4-formyl-3-methoxyphenoxyacetic acid (3) condensed with Calicheamicin N-acetyl gamma dimethyl hydrazide and m-P67.6 (antibody),Ex vivo inhibition of colony formation,CD33 antigen (human) [1],90 % inhibition
same,In vitro IC50 (3H-thymidine incorporation),CD33 antigen (human) [1],0.12 ng/mL
same,Rel. Affinity,CD33 antigen (human) [2],0.76
Conjugate of 4-(4-acetylphenoxy)butanoic acid (7) condensed with calicheamicin N-acetyl gamma dimethyl hydrazide and anti-Tac (antibody),Ex vivo IC50 (inhibition of D14 CFU-GM colony growth),[3],1 ng/mL
same,In vitro IC50 (3H-thymidine incorporation),[3],0.004 ng/mL
Conjugate of 3-(2-oxoethoxy)benzoic acid (6) condensed with Calicheamicin N-acetyl gamma dimethyl hydrazide and m-P67.6 (antibody),In vitro IC50 (3H-thymidine incorporation),CD33 antigen (human) [4],0.32 ng/mL
same,Rel. Affinity,CD33 antigen (human) [2],1.91
Conjugate of 4-(4-acetylphenoxy)butanoic acid (7) condensed with Calicheamicin N-acetyl gamma dimethyl hydrazide and m-P67.6 (antibody),Ex vivo inhibition of colony formation,CD33 antigen (human) [5],98 % inhibition
same,In vitro IC50 (3H-thymidine incorporation),CD33 antigen (human) [5],0.017 ng/mL
same,Rel. Affinity,CD33 antigen (human) [2],0.96
Conjugate of 4-formylphenoxyacetic acid (1) condensed with Calicheamicin N-acetyl gamma dimethyl hydrazide and m-P67.6 (antibody),Ex vivo inhibition of colony formation,CD33 antigen (human) [6],90 % inhibition
same,In vitro IC50 (3H-thymidine incorporation),CD33 antigen (human) [6],0.068 ng/mL
same,Rel. Affinity,CD33 antigen (human) [2],0.77
Conjugate of 4-(4-acetylphenoxy)butanoic acid (7) condensed with Calicheamicin N-acetyl gamma dimethyl hydrazide and h-CT-M-01 (antibody),In vitro IC50 (3H-thymidine incorporation),[7],0.048 ng/mL
Conjugate of 4-acetylbenzenebutanoic acid (19) condensed with Calicheamicin N-acetyl gamma dimethyl hydrazide and m-P67.6 (antibody),Ex vivo inhibition of colony formation,CD33 antigen (human) [8],99 % inhibition
same,In vitro IC50 (3H-thymidine incorporation),CD33 antigen (human) [8],0.0082 ng/mL
same,Rel. Affinity,CD33 antigen (human) [2],0.42
Conjugate of 6-formyl-2-naphthoic acid (4) condensed with Calicheamicin N-acetyl gamma dimethyl hydrazide and m-P67.6 (antibody),In vitro IC50 (3H-thymidine incorporation),CD33 antigen (human) [9],0.047 ng/mL
same,Rel. Affinity,CD33 antigen (human) [2],0.73
Conjugate of 4-(2-oxoethoxy)benzenepropanoic acid (5) condensed with Calicheamicin N-acetyl gamma dimethyl hydrazide and m-P67.6 (antibody),Ex vivo inhibition of colony formation,CD33 antigen (human) [10],71 % inhibition
same,In vitro IC50 (3H-thymidine incorporation),CD33 antigen (human) [10],0.45 ng/mL
same,Rel. Affinity,CD33 antigen (human) [2],1.11
"Conjugate of 4-formyl-3-methoxyphenoxyacetic acid (3) condensed with Calicheamicin N-acetyl gamma dimethyl hydrazide and h-P67.6 (antibody, V domains shown, drug-linker amide on lysine side chains, sites not stated; drug-linker amide on lysine side chains, sites not stated) VH: EVQLVQSGAEVKKPGSSVKVSCKASGYTITDSNIHWVRQAPGQSLEWIGYIYPYNGGTDYNQKFKNRATLTVDNPTNTAYMELSSLRSEDTDFYYCVNGNPWLAYWGQGTLVTVSS VL: DIQLTQSPSTLSASVGDRVTITCRASESLDNYGIRFLTWFQQKPGKAPKLLMYAASNQGSGVPSRFSGSGSGTEFTLTISSLQPDDFATYYCQQTKEVPWSFGQGTKVEVKR",In vitro IC50 (3H-thymidine incorporation),CD33 antigen (human) [11],0.3 ng/mL
same,Rel. Affinity,CD33 antigen (human) [12],0.81
